Numbered stars: 1 amine (or outer) side, 2 acyl side, 3 side chain; on linkers, the order of the positions; unused ones are H or OH. Bridge positions count the residues as written; N and C are the ends. Square brackets hold non-standard residues; d marks the D form. Ends that are not written are not given here. * marks the point of attachment. TATA = O=C(CC[*:1])N1CN(C(=O)CC[*:2])CN(C(=O)CC[*:3])C1; Trp(5-F) = N[C@@H](Cc1c[nH]c2ccc(F)cc12)C(=O)O; Trp(6-F) = N[C@@H](Cc1c[nH]c2cc(F)ccc12)C(=O)O; Trp(7-Me) = Cc1cccc2c(C[C@H](N)C(=O)O)c[nH]c12; Ala(2-furyl) = N[C@@H](Cc1ccco1)C(=O)O; 1Nal = N[C@@H](Cc1cccc2ccccc12)C(=O)O; 2Nal = N[C@@H](Cc1ccc2ccccc2c1)C(=O)O; Nva(3-Et) = CCC(CC)[C@H](N)C(=O)O; aIle = CC[C@@H](C)[C@H](N)C(=O)O; Cba = N[C@@H](CC1CCC1)C(=O)O; Nle = CCCC[C@H](N)C(=O)O; Pent4ynoyl = C#CCCC(=O)*; Aib = CC(C)(N)C(=O)O
B1: BCY15642 (peptide)
peptide: ACYL[Aib]DYLCGDEYCA-NH2
modifications: linker 2-9-14 via TATA
notes: scaffold TATA
B2: BCY15644 (peptide)
peptide: ACYLPD[2Nal]LCGDEYCA-NH2
modifications: linker 2-9-14 via TATA; N-terminus assumed
SMILES: CC(C)C[C@@H]1NC(=O)[C@H](Cc2ccc3ccccc3c2)NC(=O)[C@H](CC(=O)O)NC(=O)[C@@H]2CCCN2C(=O)[C@H](CC(C)C)NC(=O)[C@H](Cc2ccc(O)cc2)NC(=O)[C@@H](NC(=O)[C@H](C)N)CSCCC(=O)N2CN3CN(C2)C(=O)CCSC[C@@H](C(=O)N[C@@H](C)C(N)=O)NC(=O)[C@H](Cc2ccc(O)cc2)NC(=O)[C@H](CCC(=O)O)NC(=O)[C@H](CC(=O)O)NC(=O)CNC(=O)[C@H](CSCCC3=O)NC1=O
notes: scaffold TATA
B3: BCY15633 (peptide)
peptide: CYLPDYLCGDEYC-NH2
modifications: linker 1-8-13 via TATA; also: scaffold TATA, TATB or TBMT
notes: scaffold TATA
B4: BCY19723 (peptide)
peptide: ACDLTTHNCQ[Trp(7-Me)]GICA-NH2
modifications: linker 2-9-14 via TATA; N-terminus assumed
SMILES: CC[C@H](C)[C@@H]1NC(=O)CNC(=O)[C@H](Cc2c[nH]c3c(C)cccc23)NC(=O)[C@H](CCC(N)=O)NC(=O)[C@@H]2CSCCC(=O)N3CN(CN(C3)C(=O)CCSC[C@@H](C(=O)N[C@@H](C)C(N)=O)NC1=O)C(=O)CCSC[C@H](NC(=O)[C@H](C)N)C(=O)N[C@@H](CC(=O)O)C(=O)N[C@@H](CC(C)C)C(=O)N[C@@H]([C@@H](C)O)C(=O)N[C@@H]([C@@H](C)O)C(=O)N[C@@H](Cc1c[nH]cn1)C(=O)N[C@@H](CC(N)=O)C(=O)N2
notes: scaffold TATA
B5: BCY17224 (peptide)
peptide: Ac-CY[Cba]PDYLC[dA]DEYCK(Pent4ynoyl)-NH2
modifications: linker 1-8-13 via TATA
SMILES: C#CCCC(=O)NCCCC[C@H](NC(=O)[C@@H]1CSCCC(=O)N2CN3CN(C2)C(=O)CCSC[C@H](NC(=O)[C@H](CC(C)C)NC(=O)[C@H](Cc2ccc(O)cc2)NC(=O)[C@H](CC(=O)O)NC(=O)[C@@H]2CCCN2C(=O)[C@H](CC2CCC2)NC(=O)[C@H](Cc2ccc(O)cc2)NC(=O)[C@@H](NC(C)=O)CSCCC3=O)C(=O)N[C@H](C)C(=O)N[C@@H](CC(=O)O)C(=O)N[C@@H](CCC(=O)O)C(=O)N[C@@H](Cc2ccc(O)cc2)C(=O)N1)C(N)=O
notes: scaffold TATA
B6: BCY15108 (peptide)
peptide: ACDLTTHNCLWGVCA-NH2
modifications: linker 2-9-14 via TATA; also: scaffold TATA, TATB or TBMT
notes: scaffold TATA
B7: BCY15643 (peptide)
peptide: ACYLPD[1Nal]LCGDEYCA-NH2
modifications: linker 2-9-14 via TATA; N-terminus assumed
SMILES: CC(C)C[C@@H]1NC(=O)[C@H](Cc2cccc3ccccc23)NC(=O)[C@H](CC(=O)O)NC(=O)[C@@H]2CCCN2C(=O)[C@H](CC(C)C)NC(=O)[C@H](Cc2ccc(O)cc2)NC(=O)[C@@H](NC(=O)[C@H](C)N)CSCCC(=O)N2CN3CN(C2)C(=O)CCSC[C@@H](C(=O)N[C@@H](C)C(N)=O)NC(=O)[C@H](Cc2ccc(O)cc2)NC(=O)[C@H](CCC(=O)O)NC(=O)[C@H](CC(=O)O)NC(=O)CNC(=O)[C@H](CSCCC3=O)NC1=O
notes: scaffold TATA
B8: BCY15635 (peptide)
peptide: Ac-ACYLPDYLCGDEYCA-NH2
modifications: linker 2-9-14 via TATA
notes: scaffold TATA
B9: BCY16834 (peptide)
peptide: ACK(Pent4ynoyl)LPDYLCGDEYCA-NH2
modifications: linker 2-9-14 via TATA; N-terminus assumed
SMILES: C#CCCC(=O)NCCCC[C@@H]1NC(=O)[C@@H](NC(=O)[C@H](C)N)CSCCC(=O)N2CN3CN(C2)C(=O)CCSC[C@@H](C(=O)N[C@@H](C)C(N)=O)NC(=O)[C@H](Cc2ccc(O)cc2)NC(=O)[C@H](CCC(=O)O)NC(=O)[C@H](CC(=O)O)NC(=O)CNC(=O)[C@H](CSCCC3=O)NC(=O)[C@H](CC(C)C)NC(=O)[C@H](Cc2ccc(O)cc2)NC(=O)[C@H](CC(=O)O)NC(=O)[C@@H]2CCCN2C(=O)[C@H](CC(C)C)NC1=O
notes: scaffold TATA
B10: BCY15100 (peptide)
peptide: ACYLPDYLCGDEYCA-NH2
modifications: linker 2-9-14 via TATA; also: scaffold TATA, TATB or TBMT
notes: scaffold TATA
B11: BCY15661 (peptide)
peptide: ACYLPDYLCGDAYCA-NH2
modifications: linker 2-9-14 via TATA; also: cyclised with TATA, TATB or TBMT
notes: scaffold TATA
B12: BCY15653 (peptide)
peptide: ACALPDYLCGDEYCA-NH2
modifications: linker 2-9-14 via TATA; also: cyclised with TATA, TATB or TBMT
notes: scaffold TATA
B13: BCY15659 (peptide)
peptide: ACYLPDYLCADEYCA-NH2
modifications: linker 2-9-14 via TATA; also: cyclised with TATA, TATB or TBMT
notes: scaffold TATA
B14: BCY15655 (peptide)
peptide: ACYLADYLCGDEYCA-NH2
modifications: linker 2-9-14 via TATA; also: cyclised with TATA, TATB or TBMT
notes: scaffold TATA
B15: BCY15662 (peptide)
peptide: ACYLPDYLCGDEACA-NH2
modifications: linker 2-9-14 via TATA; also: cyclised with TATA, TATB or TBMT
notes: scaffold TATA
B16: BCY19733 (peptide)
peptide: ACDLTTHNCQWG[Nva(3-Et)]CA-NH2
modifications: linker 2-9-14 via TATA; N-terminus assumed
SMILES: CCC(CC)[C@@H]1NC(=O)CNC(=O)[C@H](Cc2c[nH]c3ccccc23)NC(=O)[C@H](CCC(N)=O)NC(=O)[C@@H]2CSCCC(=O)N3CN(CN(C3)C(=O)CCSC[C@@H](C(=O)N[C@@H](C)C(N)=O)NC1=O)C(=O)CCSC[C@H](NC(=O)[C@H](C)N)C(=O)N[C@@H](CC(=O)O)C(=O)N[C@@H](CC(C)C)C(=O)N[C@@H]([C@@H](C)O)C(=O)N[C@@H]([C@@H](C)O)C(=O)N[C@@H](Cc1c[nH]cn1)C(=O)N[C@@H](CC(N)=O)C(=O)N2
notes: scaffold TATA
B17: BCY15568 (peptide)
peptide: ACNLQLHNCQWGICA-NH2
modifications: linker 2-9-14 via TATA; also: scaffold TATA, TATB or TBMT
notes: scaffold TATA
B18: BCY15109 (peptide)
peptide: ACNLQLHNCIWGVCA-NH2
modifications: linker 2-9-14 via TATA; also: scaffold TATA, TATB or TBMT
notes: scaffold TATA
B19: BCY19734 (peptide)
peptide: ACDLTTHNCQWG[Nle]CA-NH2
modifications: linker 2-9-14 via TATA; N-terminus assumed
SMILES: CCCC[C@@H]1NC(=O)CNC(=O)[C@H](Cc2c[nH]c3ccccc23)NC(=O)[C@H](CCC(N)=O)NC(=O)[C@@H]2CSCCC(=O)N3CN(CN(C3)C(=O)CCSC[C@@H](C(=O)N[C@@H](C)C(N)=O)NC1=O)C(=O)CCSC[C@H](NC(=O)[C@H](C)N)C(=O)N[C@@H](CC(=O)O)C(=O)N[C@@H](CC(C)C)C(=O)N[C@@H]([C@@H](C)O)C(=O)N[C@@H]([C@@H](C)O)C(=O)N[C@@H](Cc1c[nH]cn1)C(=O)N[C@@H](CC(N)=O)C(=O)N2
notes: scaffold TATA
B20: BCY15634 (peptide)
peptide: Ac-CYLPDYLCGDEYC-NH2
modifications: linker 1-8-13 via TATA; not fully specified
notes: scaffold TATA
B21: BCY19725 (peptide)
peptide: ACDLTTHNCQ[Trp(5-F)]GICA-NH2
modifications: linker 2-9-14 via TATA
notes: scaffold TATA
B22: BCY19735 (peptide)
peptide: ACDLTTHNCQWG[aIle]CA-NH2
modifications: linker 2-9-14 via TATA
notes: scaffold TATA
B23: BCY14456 (peptide)
peptide: ACNLQKPCMKYPCA-NH2
modifications: linker 2-8-13 via TATA; also: scaffold TATA, TATB or TBMT
notes: scaffold TATA
B24: BCY19724 (peptide)
peptide: ACDLTTHNCQ[Trp(6-F)]GICA-NH2
modifications: linker 2-9-14 via TATA
notes: scaffold TATA
B25: BCY19732 (peptide)
peptide: ACDLTT[Ala(2-furyl)]NCQWGICA-NH2
modifications: linker 2-9-14 via TATA; N-terminus assumed
SMILES: CC[C@H](C)[C@@H]1NC(=O)CNC(=O)[C@H](Cc2c[nH]c3ccccc23)NC(=O)[C@H](CCC(N)=O)NC(=O)[C@@H]2CSCCC(=O)N3CN(CN(C3)C(=O)CCSC[C@@H](C(=O)N[C@@H](C)C(N)=O)NC1=O)C(=O)CCSC[C@H](NC(=O)[C@H](C)N)C(=O)N[C@@H](CC(=O)O)C(=O)N[C@@H](CC(C)C)C(=O)N[C@@H]([C@@H](C)O)C(=O)N[C@@H]([C@@H](C)O)C(=O)N[C@@H](Cc1ccco1)C(=O)N[C@@H](CC(N)=O)C(=O)N2
notes: scaffold TATA

Legend:
[1] = target: T1, Human NKp46 His tag (Acro Biosystems, NC1-H52H4) (human, UniProt O76036 22-255); test: FP competition vs BCY15035
T1 construct: bought; also called human NKp46-his tagged protein
T1 sequence (O76036 22-255 limits assumed): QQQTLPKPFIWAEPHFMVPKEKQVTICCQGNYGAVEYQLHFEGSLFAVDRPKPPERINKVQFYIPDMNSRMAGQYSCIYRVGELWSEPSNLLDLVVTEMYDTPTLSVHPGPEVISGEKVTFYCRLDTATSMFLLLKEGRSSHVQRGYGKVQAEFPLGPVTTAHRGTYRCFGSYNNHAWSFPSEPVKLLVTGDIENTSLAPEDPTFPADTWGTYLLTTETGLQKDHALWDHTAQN
Protocol: The untagged competitor peptides were diluted in assay buffer 25 mM HEPES, 100 mM NaCl, 0.01% P20, pH 7.4. to a top concentration of 5000 nM and diluted 2-fold in 11 steps. The human NKp46-his tagged protein (AcroBiosystems) was diluted to 40 nM final concentration in the assay. […] The total volume of 25 μL was prepared in black walled and flat-bottomed low binding low volume 384 well plates. Measurements were performed using Envision (PerkinElmer) equipped with the excitation filter FITC FP 480, emission filter FITC FP P-pol 535 and 2nd emission filter FITC FP S-pol 535 and set to 30 flashes. The gain was set in a well containing tracer alone without target protein.

[2] = target: T2, Human NKp46 Fc tag (Acro Biosystems, NC1-H5257) (human, UniProt O76036 22-255); test: SPR Method 1 and/or 2
T2 construct: bought; also called Fc-tagged human NKp46
T2 sequence (O76036 22-255 limits assumed): as above
Outline: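 Fc-tagged human NKp46 captured on anti-human IgG surface (500–1000 RU); compounds run in PBS-P+ with 2% DMSO at 25 °C, 50 μL/min, 60 s association, 400 s dissociation. Double-referenced, DMSO-corrected; KD from steady-state 1:1 fit, kinetic constants from kinetic 1:1 fit where appropriate.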

Row | Binder | Ki [1] [nM] | Kd [2] [nM]
1 | B1 | 910 | –
2 | B2 | 159 | –
3 | B3 | 86 | –
4 | B4 | – | 2270
5 | B5 | – | 3.5
6 | B6 | – | 642
7 | B7 | 755 | –
8 | B8 | 61 | –
9 | B9 | – | 83
10 | B10 | 49 | –
11 | B11 | 1780 | –
12 | B12 | 411 | –
13 | B13 | 226 | –
14 | B14 | 324 | –
15 | B15 | 672 | –
16 | B16 | – | 354
17 | B17 | – | 69
18 | B18 | – | 274
19 | B19 | – | 611
20 | B20 | 98 | –
21 | B21 | – | 457
22 | B22 | – | 460
23 | B23 | – | 703
24 | B24 | – | 1390
25 | B25 | – | 964

From patent publication US20240108738A1 (Bicycle, published 2024)
